Results from paper PMC4109716.
Where a chain is given by its changes, count along the chain named. Read-outs that look alike come from different tables or passages of the source.

What was measured:
Assay in all cases: smFRET
[1] = biological target: T1, POT1 (Homo sapiens, UniProt Q9NUX5 1-634)
T1 sequence: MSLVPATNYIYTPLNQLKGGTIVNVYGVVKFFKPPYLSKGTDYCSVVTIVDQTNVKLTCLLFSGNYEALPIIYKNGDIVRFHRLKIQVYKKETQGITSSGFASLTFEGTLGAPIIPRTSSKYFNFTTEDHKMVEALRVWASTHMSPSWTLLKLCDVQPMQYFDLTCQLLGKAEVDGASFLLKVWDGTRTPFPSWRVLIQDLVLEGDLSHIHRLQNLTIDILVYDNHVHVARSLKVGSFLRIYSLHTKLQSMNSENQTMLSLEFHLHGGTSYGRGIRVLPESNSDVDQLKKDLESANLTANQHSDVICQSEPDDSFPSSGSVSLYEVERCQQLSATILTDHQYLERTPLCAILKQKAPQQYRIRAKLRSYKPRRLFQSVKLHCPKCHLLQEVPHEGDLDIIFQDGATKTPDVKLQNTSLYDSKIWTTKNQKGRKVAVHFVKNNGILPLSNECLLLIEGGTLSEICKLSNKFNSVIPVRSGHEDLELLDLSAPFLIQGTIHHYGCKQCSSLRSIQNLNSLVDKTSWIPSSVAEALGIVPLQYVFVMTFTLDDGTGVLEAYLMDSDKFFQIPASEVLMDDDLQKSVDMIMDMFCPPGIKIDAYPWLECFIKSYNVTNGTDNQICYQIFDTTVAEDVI

[2] = biological target: T2, POT1;TPP1N (Homo sapiens;Homo sapiens?, UniProt Q9NUX5;Q96AP0 1-634;3-248, |)
T2 sequence (Q96AP0 3-248, one chain of several): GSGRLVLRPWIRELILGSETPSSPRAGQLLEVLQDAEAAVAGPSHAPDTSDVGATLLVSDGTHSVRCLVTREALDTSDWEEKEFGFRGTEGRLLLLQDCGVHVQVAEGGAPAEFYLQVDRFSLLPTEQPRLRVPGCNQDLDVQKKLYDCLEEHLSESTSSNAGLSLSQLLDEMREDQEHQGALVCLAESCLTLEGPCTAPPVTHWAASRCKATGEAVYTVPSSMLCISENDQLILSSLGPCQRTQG

[3] = biological target: T1, POT1; remark: listed apart in the source
[4] = biological target: T3, POT1;TPP1N-Alexa 647 (Homo sapiens;Homo sapiens?, UniProt Q9NUX5;Q96AP0 1-634;3-248, |)
T3 sequence (Q96AP0 3-248, one chain of several): as above

[5] = biological target: T2, POT1;TPP1N; remark: listed apart in the source
[6] = biological target: T1, POT1; remark: listed apart in the source
[7] = biological target: T3, POT1;TPP1N-Alexa 647; remark: listed apart in the source
[8] = biological target: T1, POT1; remark: listed apart in the source
[9] = biological target: T1, POT1; remark: listed apart in the source
[10] = biological target: T3, POT1;TPP1N-Alexa 647; remark: listed apart in the source
[11] = biological target: T1, POT1; remark: listed apart in the source

B1: G4 (24 nt FRET) (mixed)
DNA 1: TGGCGACGGCAGCGAGGCTTAGGGTTAGGGTTAGGGTTAGGG
DNA 2: GCCTCGCTGCCGTCGCCA
binding result [1]: binds | binding result [2]: binds

B2: G4 (6 nt Cy3) (mixed)
DNA 1: B1 DNA 1
DNA 2: GCCTCGCTGCCGTCGCCA
modifications: internal Cy3 in strand 1 after nt 24
binding result [3]: binds

B3: G2-mut2 (unlabelled stem strand) (mixed)
DNA 1: B1 DNA 1 with A33T, G36C, A39T, G42C
DNA 2: GCCTCGCTGCCGTCGCCA
binding result [4]: binds

B4: G4 (18 nt Cy3) (mixed)
DNA 1: B1 DNA 1
DNA 2: GCCTCGCTGCCGTCGCCA
modifications: internal Cy3 in strand 1 after nt 36
binding result [5]: binds | binding result [3]: binds

B5: G2-mut2 (FRET with Cy5 stem) (mixed)
DNA 1: B1 DNA 1 with A33T, G36C, A39T, G42C
DNA 2: GCCTCGCTGCCGTCGCCA
binding result [6]: binds

B6: G4 (3'Cy3, unlabelled stem strand) (mixed)
DNA 1: B1 DNA 1
DNA 2: GCCTCGCTGCCGTCGCCA
binding result [7]: binds

B7: OB2 mutant (mixed)
DNA 1: TGGCGACGGCAGCGAGGCTTAGGGTTTT
DNA 2: GCCTCGCTGCCGTCGCCA
binding result [8]: binds

B8: G2 (mixed)
DNA 1: TGGCGACGGCAGCGAGGCTTAGGGTTAGGG
DNA 2: GCCTCGCTGCCGTCGCCA
binding result [9]: binds

B9: G2-mut4 (unlabelled stem strand) (mixed)
DNA 1: TGGCGACGGCAGCGAGGCTTAGGGTTAGGGTTTGGCTTTGGCTTTGGCTTTGGC
DNA 2: GCCTCGCTGCCGTCGCCA
binding result [10]: binds

B10: G3 (mixed)
DNA 1: TGGCGACGGCAGCGAGGCTTAGGGTTAGGGTTAGGG
DNA 2: GCCTCGCTGCCGTCGCCA
binding result [11]: binds
